Data on five molecules can be found in patent US20130156764A1, “NEUTRALIZATION OF FLT3 LIGAND AS A LEUKEMIA THERAPY” (The Johns Hopkins University, priority 2010, published 2013).

In experiment [1] the test system is FLT3 autophosphorylation in Molm14 cells (FLT3/ITD). In words: Inhibition of FLT3 autophosphorylation in Molm14 cells in presence of FL (immunoblot). It counts as cell-based. Particulars: for effect of FL on dose response curve for inhibition of FLT3 autophosphorylation: exogenous FL, in medium and plasma; for effect of addition of FL on inhibition at the highest doses used: medium and plasma. As to the method:
(§1) Leukemia cells were washed in PBS, then lysed by re-suspending them in lysis buffer (20 mM Tris pH 7.4, 100 mM NaCl, 1% Igepal (Sigma, St. Louis, Mo.), 1 mM EDTA, 2 mM NaV04, plus Complete protease inhibitor (Roche)) for 30 minutes while rocking. The extract was clarified by centrifugation at 14,000 rpm and the supernatant was assayed for protein (Bio-Rad, Richmond, Calif.). A 50 μg aliquot was removed as whole-cell lysate for analysis of STAT5, and the remainder was used for immunoprecipitation with anti-FLT3 antibody. Anti-FLT3 antibody (SI8; Santa Cruz Biotechnology, Santa Cruz, Calif.) was added to the extract for overnight incubation, then protein A sepharose (Upstate Biotechnology, Lake Placid, N.Y.) was added for 2 additional hours. Separate SDS-PAGE (sodium dodecylsulfate polyacrylamide electrophoresis) gels for whole-cell lysate and immunoprecipitates were run in parallel, After transfer to Immobilon membranes (Millipore, Bedford, Mass.), immunoblotting was performed with antiphosphotyrosine antibody (4G10; Upstate Biotechnology, Lake Placid, N.Y.) to detect phosphorylated FLT3, and then stripped and re-probed with anti-FLT3 antibody to measure total FLT3. Proteins were visualized using chemiluminescence (ECL; GE Healthcare, Piscataway, N.J.), exposed on Kodak BioMax XAR Film, developed, and scanned using a BioRad GS800 densitometer.

In experiment [2] the test system is FLT3. As to the kind of experiment: Plasma inhibitory activity (PIA) assay for FLT3 with patient plasma on TF/ITD cells. It counts as cell-based, human. The conditions noted are these: for mean PIA value: AML15 trial. As for the experimental part: as §1
Frozen plasma samples were thawed and clarified by centrifugation at 14,000 rpm for 2 minutes. All assays described herein were performed within 12 months of collection. For each time point, 2×10^6 TF/ITD were incubated with 1 ml plasma at 37° C. for 1 hour. The cells were washed twice with ice-cold PBS then lysed. After immunoblotting for phosphorylated FLT3 as described above, densitometric analysis was performed on the bands and the PIA for a given plasma sample was calculated by expressing the density of its corresponding band as a percentage of the density of the baseline band (which was arbitrarily set at 100%).

Experiment [3] concerns FLT3. Particulars: previous monotherapy trials; cited from earlier work.
Experiment [4] addresses T1, FLT3/ITD mutant (addition of 6 amino acids, RTDFRE, after amino acid No. 596 of full-length FLT3) (human) (UniProt P36888).
T1 sequence: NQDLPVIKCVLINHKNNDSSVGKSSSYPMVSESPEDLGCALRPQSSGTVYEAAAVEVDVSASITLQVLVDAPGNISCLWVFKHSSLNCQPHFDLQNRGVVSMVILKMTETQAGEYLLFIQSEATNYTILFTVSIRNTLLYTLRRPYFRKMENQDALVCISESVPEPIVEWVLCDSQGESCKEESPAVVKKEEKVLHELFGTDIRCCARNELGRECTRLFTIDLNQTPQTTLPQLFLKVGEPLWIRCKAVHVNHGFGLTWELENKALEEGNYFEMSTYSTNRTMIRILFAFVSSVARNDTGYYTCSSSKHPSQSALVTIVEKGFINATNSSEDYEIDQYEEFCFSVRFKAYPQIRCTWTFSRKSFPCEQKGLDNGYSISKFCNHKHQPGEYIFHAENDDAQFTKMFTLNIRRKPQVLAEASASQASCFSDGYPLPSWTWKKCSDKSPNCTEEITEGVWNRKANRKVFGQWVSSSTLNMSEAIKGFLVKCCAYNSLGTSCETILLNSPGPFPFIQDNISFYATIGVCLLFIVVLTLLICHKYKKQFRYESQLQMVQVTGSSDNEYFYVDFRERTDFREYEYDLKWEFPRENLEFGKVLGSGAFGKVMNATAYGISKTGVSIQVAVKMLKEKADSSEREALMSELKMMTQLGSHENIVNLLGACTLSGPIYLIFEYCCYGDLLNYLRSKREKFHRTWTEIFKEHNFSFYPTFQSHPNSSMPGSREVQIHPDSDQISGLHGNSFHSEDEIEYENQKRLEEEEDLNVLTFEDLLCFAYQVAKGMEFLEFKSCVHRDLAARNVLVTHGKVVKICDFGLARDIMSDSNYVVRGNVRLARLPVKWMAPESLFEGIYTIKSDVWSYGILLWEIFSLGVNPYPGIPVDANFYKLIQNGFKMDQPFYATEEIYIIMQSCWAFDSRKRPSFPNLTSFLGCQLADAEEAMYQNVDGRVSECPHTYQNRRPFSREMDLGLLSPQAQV
In words: cell-based or functional assay.

In experiment [5] the target is T2, FLT3/TKD mutant (D835, Aspartic acid to Tyrosine change, in full-length FLT3) (human) (UniProt P36888).
T2 sequence: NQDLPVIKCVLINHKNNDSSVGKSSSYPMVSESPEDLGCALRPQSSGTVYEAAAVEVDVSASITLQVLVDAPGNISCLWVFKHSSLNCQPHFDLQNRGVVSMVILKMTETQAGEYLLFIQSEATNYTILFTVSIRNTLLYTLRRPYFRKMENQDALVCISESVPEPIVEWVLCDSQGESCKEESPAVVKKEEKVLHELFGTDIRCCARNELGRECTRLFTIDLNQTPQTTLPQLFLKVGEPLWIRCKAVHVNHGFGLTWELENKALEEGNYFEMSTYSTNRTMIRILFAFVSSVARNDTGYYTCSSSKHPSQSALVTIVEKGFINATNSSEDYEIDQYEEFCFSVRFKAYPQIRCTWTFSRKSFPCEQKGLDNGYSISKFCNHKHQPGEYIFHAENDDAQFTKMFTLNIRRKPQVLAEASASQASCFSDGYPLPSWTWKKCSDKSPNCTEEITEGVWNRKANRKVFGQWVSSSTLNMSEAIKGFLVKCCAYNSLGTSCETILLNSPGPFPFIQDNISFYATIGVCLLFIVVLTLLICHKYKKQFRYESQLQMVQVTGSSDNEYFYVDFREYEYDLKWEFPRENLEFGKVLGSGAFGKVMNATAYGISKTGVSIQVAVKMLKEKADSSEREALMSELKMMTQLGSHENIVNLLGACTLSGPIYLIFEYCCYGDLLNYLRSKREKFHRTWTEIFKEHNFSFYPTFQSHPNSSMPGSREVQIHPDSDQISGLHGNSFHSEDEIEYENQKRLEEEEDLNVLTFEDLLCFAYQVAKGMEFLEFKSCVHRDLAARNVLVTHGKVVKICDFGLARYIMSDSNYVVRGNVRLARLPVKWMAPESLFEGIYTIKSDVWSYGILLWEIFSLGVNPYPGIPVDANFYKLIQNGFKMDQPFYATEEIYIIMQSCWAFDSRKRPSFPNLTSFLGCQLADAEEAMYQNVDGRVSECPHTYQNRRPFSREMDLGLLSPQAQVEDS
As to the kind of experiment: cell-based or functional assay.

For experiment [6], the target named is T3, wild-type FLT3 (full-length, expressed in FL-/- MEF cells) (human) (UniProt P36888).
T3 sequence: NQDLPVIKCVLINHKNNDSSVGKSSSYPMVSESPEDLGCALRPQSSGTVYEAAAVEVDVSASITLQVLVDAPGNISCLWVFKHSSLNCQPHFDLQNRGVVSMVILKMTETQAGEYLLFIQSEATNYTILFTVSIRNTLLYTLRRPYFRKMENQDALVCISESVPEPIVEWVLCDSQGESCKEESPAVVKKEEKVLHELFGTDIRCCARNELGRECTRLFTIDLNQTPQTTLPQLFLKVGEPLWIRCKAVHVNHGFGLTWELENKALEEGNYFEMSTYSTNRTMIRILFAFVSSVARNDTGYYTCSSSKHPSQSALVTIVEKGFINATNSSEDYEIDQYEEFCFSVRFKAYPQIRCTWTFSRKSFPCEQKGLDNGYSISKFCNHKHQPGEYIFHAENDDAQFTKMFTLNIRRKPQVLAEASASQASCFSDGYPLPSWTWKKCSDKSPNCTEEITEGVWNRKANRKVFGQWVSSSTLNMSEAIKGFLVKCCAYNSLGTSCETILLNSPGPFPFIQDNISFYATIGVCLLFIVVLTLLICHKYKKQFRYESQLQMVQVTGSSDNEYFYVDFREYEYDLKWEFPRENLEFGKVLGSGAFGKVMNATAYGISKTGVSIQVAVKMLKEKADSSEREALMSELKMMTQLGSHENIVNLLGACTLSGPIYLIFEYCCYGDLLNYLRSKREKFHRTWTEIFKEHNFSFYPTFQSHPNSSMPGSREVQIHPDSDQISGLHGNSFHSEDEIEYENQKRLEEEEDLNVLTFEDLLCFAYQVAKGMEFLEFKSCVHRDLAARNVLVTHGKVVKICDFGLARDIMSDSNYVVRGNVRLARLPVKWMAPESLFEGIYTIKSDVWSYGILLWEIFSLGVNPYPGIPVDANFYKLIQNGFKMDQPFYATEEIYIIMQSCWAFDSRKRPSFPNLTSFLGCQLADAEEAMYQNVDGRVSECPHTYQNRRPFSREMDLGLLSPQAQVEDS
In words: cell-based or functional assay.

In the case of `O=C(c1ccc(/C=C/c2n[nH]c3ccccc23)cc1)N1CCNCC1` [KW-2449], in experiment [1], the “effect of FL on dose response curve for inhibition of FLT3 autophosphorylation” value is “upward shift in the dose response curves” and the “effect of addition of FL on inhibition at the highest doses used” value is listed as “loss of complete inhibition”.

In the case of `CNC(=O)c1cc(Oc2ccc(NC(=O)Nc3ccc(Cl)c(C(F)(F)F)c3)cc2)ccn1` [sorafenib, Sorafenib], in experiment [1], the “effect of FL on dose response curve for inhibition of FLT3 autophosphorylation” value is given as “upward shift in the dose response curves” and the “effect of addition of FL on inhibition at the highest doses used” value is on record as “loss of complete inhibition”.

Regarding `C[C@]12O[C@H](C[C@]1(O)CO)n1c3ccccc3c3c4c(c5c6ccccc6n2c5c31)CNC4=O` [lestaurtinib, Lestaurtinib], the “samples below 15% of baseline FLT3 activity” value in experiment [2] (AML15 trial (newly diagnosed AML), Day 15 trough) is “all 18”. Moreover, the “mean PIA value” in experiment [2] (course 1, 18 samples) is on record as 3 % of baseline; in experiment [2] (courses 2 through 4, 18 samples), 6.8%. In experiment [2] (Cephalon 204 trial (relapsed AML), Day 15 trough, 78 samples), the “samples achieving target level of inhibition (FLT3 below 15% of baseline)” value amounted to 62%. Further, the “FLT3 autophosphorylation remaining with FL” value in experiment [1] (10 μM in plasma, 3 ng/mL FL) is “significant residual FLT3 autophosphorylation”. Further, the “effect of FL on dose response curve for inhibition of FLT3 autophosphorylation” value in experiment [1] was “upward shift in the dose response curve”. The “trough levels in vivo sufficient to induce FLT3 inhibition to 15% of baseline” value in experiment [3] is 5 µM.

B1: Recombinant human FL (FLT3 ligand), PeproTech (ligand)
chain: TQDCSFQHSPISSDFAVKIRELSDYLLQDYPVTVASNLQDEELCGGLWRLVLAQRWMERLKTVAGSKMQGLLERVNTEIHFVTKCAFQPPPSCLRFVQTNISRLLQETSEQLVALKPWITRQNFSRCLELQCQPDSSTLPPPWSPRPLEATAPTA
Regarding B1, in experiment [4], the AKT phosphorylation in BaF3/ITD cells after FL stimulation came out at 1.3 fold; the FLT3 phosphorylation (anti-FLT3 IP, 4G10 immunoblot, densitometry) in FL-/- MEF-ITD cells, FL 100 ng/mL 15 min is more than 4 fold; the FLT3 phosphorylation in TF1/ITD cells, exogenous FL 15 min was more than 2 fold; the STAT5 phosphorylation in TF1/ITD cells after FL stimulation turned out to be 1.8 fold. For the same molecule, in experiment [4], the apoptotic population (Annexin V/7AAD, FACS) of TF1/ITD cells, 48 h serum-free, with FL came to 49.5% and the apoptotic population (Annexin V/7AAD, FACS) of TF1/ITD cells, 48 h serum-free, without FL was found to be 61.3%. In experiment [5], this molecule showed an AKT phosphorylation in BaF3/TKD cells after FL stimulation of 2.2 fold; an FLT3 phosphorylation (anti-FLT3 IP, 4G10 immunoblot, densitometry) in FL-/- MEF-TKD cells, FL 100 ng/mL 15 min of more than 4 fold; an FLT3 phosphorylation in TF1/TKD cells, exogenous FL 15 min of more than 2 fold; an STAT5 phosphorylation in TF1/TKD cells after FL stimulation of 1.8 fold. Also, in experiment [5], the apoptotic population (Annexin V/7AAD, FACS) of TF1/TKD cells, 48 h serum-free, with FL was 31.6% and the apoptotic population (Annexin V/7AAD, FACS) of TF1/TKD cells, 48 h serum-free, without FL was determined as 40.2%. This molecule also gave an FLT3 phosphorylation (anti-FLT3 IP, 4G10 immunoblot, densitometry) in FL-/- MEF-FLT3 cells, FL 100 ng/mL 15 min in experiment [6] of more than 4 fold.

B2: secreted form of FL expressed from a lentiviral vector (coding sequence from pUMVC3-hFLex plasmid) (ligand)
chain: TQDCSFQHSPISSDFAVKIRELSDYLLQDYPVTVASNLQDEELCGGLWRLVLAQRWMERLKTVAGSKMQGLLERVNTEIHFVTKCAFQPPPSCLRFVQTNISRLLQETSEQLVALKPWITRQNFSRCLELQCQPDSSTLPPPWSPRPLEATAPTAP
B2 had an FLT3 phosphorylation in FL-/- MEF-ITD cells stably expressing FL, no exogenous FL in experiment [4] of more than 3 fold. For the same molecule, the FLT3 phosphorylation in FL-/- MEF-TKD cells stably expressing FL, no exogenous FL in experiment [5] was more than 3 fold. Besides, in experiment [6], the FLT3 phosphorylation in FL-/- MEF-FLT3 cells stably expressing FL, no exogenous FL is more than 3 fold.
